In US20210319279A1:

Target: SBE FLAG9 (three 3xFLAG domains joined by rigid linkers) displayed on the yeast cell wall as a fusion to truncated FLO11 (S. cerevisiae) (UniProt P08640)
Assay: cell-based or functional assay

Sequence of UniProt P08640 (P08640 other isoform, or with tags, fused parts or gaps limits assumed): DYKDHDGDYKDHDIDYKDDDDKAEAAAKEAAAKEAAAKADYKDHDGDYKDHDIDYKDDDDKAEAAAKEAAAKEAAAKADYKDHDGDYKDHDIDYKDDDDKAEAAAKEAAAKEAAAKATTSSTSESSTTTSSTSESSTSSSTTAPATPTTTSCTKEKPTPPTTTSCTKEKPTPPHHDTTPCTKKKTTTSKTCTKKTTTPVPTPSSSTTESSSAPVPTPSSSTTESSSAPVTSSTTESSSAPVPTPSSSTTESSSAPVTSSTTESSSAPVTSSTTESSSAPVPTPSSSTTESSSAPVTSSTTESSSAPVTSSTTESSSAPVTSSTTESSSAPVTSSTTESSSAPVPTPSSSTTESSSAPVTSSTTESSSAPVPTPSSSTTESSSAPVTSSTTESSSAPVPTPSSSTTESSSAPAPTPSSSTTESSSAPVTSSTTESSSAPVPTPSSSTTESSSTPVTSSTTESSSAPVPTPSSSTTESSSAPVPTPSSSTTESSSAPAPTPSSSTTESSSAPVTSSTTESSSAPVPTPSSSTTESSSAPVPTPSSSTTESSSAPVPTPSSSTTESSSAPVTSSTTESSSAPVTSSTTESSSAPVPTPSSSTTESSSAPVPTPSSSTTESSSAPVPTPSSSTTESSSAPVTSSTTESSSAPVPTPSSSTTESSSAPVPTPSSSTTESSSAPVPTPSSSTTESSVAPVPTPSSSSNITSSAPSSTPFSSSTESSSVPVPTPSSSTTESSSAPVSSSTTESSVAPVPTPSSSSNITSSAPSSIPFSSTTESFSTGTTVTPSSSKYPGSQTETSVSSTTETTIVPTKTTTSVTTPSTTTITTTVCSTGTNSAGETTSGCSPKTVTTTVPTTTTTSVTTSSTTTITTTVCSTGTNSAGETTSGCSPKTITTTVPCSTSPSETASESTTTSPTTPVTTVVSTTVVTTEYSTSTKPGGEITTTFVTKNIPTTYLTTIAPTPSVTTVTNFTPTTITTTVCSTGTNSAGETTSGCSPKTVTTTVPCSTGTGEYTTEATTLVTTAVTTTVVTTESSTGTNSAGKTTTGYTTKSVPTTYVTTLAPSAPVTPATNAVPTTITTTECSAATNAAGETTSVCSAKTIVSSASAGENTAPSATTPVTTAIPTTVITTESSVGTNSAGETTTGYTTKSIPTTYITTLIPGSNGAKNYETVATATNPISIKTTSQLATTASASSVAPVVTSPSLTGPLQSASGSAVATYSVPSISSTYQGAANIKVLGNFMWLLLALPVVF

- beta-lactamase reporter (nitrocefin-BLA analysis), fold-change against the negative control without beads; PIC assay with sX406, sX216 and regulatory sX437: 2 fold
- beta-lactamase reporter, fold-change against the negative control; OR operation, Experiment A (BaF beads only): 3 to 4 fold
- nitrocefin hydrolysis readout (image intensity), fold-increase against negative controls at 6 hrs; PIC assay with immobilization, strains sX384 and sX387, BaF beads: 6 to 10 fold
Substance: anti-FLAG M2 antibody (A2220 Sigma-Aldrich), covalently linked to agarose beads
